Target: T1, CD79b蛋白 (on CHO-K1-CD79b细胞 / A375-CD79b细胞) (Homo sapiens (Human), UniProt P40259 29-229)
T1 sequence: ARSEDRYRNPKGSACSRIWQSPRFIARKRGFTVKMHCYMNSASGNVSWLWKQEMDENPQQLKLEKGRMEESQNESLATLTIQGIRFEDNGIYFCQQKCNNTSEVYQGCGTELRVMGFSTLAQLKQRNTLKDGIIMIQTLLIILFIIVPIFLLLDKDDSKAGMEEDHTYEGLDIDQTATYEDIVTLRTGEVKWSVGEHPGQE
Assay: flow cytometry on CHO-K1-CD79b cells, Alexa-647 anti-human Fc detection

B1: 抗体CD3×CD79b (bispecific antibody, human IgG1, kappa, L234A L235A)
scFv: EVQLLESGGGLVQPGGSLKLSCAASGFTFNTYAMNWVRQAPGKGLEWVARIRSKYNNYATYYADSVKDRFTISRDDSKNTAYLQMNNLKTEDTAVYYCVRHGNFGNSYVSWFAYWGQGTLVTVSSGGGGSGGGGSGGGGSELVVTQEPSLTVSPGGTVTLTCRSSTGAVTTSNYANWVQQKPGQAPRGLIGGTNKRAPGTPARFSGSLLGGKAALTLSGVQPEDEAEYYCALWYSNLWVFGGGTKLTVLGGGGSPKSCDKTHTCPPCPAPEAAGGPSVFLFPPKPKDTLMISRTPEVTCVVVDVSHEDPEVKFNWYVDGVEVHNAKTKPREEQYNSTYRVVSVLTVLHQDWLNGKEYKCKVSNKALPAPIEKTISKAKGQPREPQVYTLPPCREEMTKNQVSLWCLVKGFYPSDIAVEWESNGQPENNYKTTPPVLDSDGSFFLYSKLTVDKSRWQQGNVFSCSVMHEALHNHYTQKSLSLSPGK
heavy: EVQLVESGGGLVQPGGSLRLSCAASGYTFSSYWIEWVRQAPGKGLEWIGEILPGGGDTNYNEIFKGRATFSADTSKNTAYLQMNSLRAEDTAVYYCTRRVPIRLDYWGQGTLVTVSSASTKGPSVFPLAPSSKSTSGGTAALGCLVKDYFPEPVTVSWNSGALTSGVHTFPAVLQSSGLYSLSSVVTVPSSSLGTQTYICNVNHKPSNTKVDKKVEPKSCDKTHTCPPCPAPEAAGGPSVFLFPPKPKDTLMISRTPEVTCVVVDVSHEDPEVKFNWYVDGVEVHNAKTKPREEQYNSTYRVVSVLTVLHQDWLNGKEYKCKVSNKALPAPIEKTISKAKGQPREPQVCTLPPSREEMTKNQVSLSCAVKGFYPSDIAVEWESNGQPENNYKTTPPVLDSDGSFFLVSKLTVDKSRWQQGNVFSCSVMHEALHNHYTQKSLSLSPGK
light: DIQLTQSPSSLSASVGDRVTITCKASQSVDYEGDSFLNWYQQKPGKAPKLLIYAASNLESGVPSRFSGSGSGTDFTLTISSLQPEDFATYYCQQSNEDPLTFGQGTKVEIKRTVAAPSVFIFPPSDEQLKSGTASVVCLLNNFYPREAKVQWKVDNALQSGNSQESVTEQDSKDSTYSLSSTLTLSKADYEKHKVYACEVTHQGLSSPVTKSFNRGEC
notes: Three-chain knob-into-hole bispecific made in ExpiCHO cells and purified on Protein A; also called CD3×CD79b抗体; CD3×CD79b双特异抗体
binding result: binds

From patent CN115368446A (HEFEI TIANGANG IMMUNOLOGY PHARMACEUTICAL CO LTD, dated 2022)
